Read-outs that look alike come from different tables or passages of the source.

Data on 4 molecules can be found in patent EP4242225A1.

Holding throughout (conditions): remark: other sources report otherwise
Assay [1] addresses T1, RBD-FH, monomeric RBD (332-534) with a FLAG peptide and an 8xHis-tag at the C-terminus (SARS-CoV-2), P0DTC2.
The target of assay [2] is RBD-Fc, Wuhan strain (WA1) (SARS-CoV-2; human), P0DTC2.
Assay [3] addresses T1, RBD-FH, monomeric RBD (332-534) with a …. This is another data set of the same source.

B1: Nb 1.10 (VHH)
VHH: QVQLVESGGGSVQAGGSLRLSCAASGYTYSTCRKGWYRQAPGKERELVASITADGATYYLDSVKGRLTISQDNAKNTVYLQMNSLKPEDTAVYYCAASVKDFTCTFNSWGQGTQVTVSS
The Kd is the concentration at which binding is half-saturated. High values mean weaker binding, low ones tighter binding. Usually koff stands for the first-order rate constant of dissociation. In general, kon refers to a measure of how fast the partners come together. As for B1, in assay [1], the equilibrium dissociation constant (Kd) was 3.96 nM, the koff amounted to 0.00137 s⁻¹ and the kon came out at 345000 M⁻¹ s⁻¹.

B2: hcAb 1.10 (Fc fusion)
heavy: QVQLVESGGGSVQAGGSLRLSCAASGYTYSTCRKGWYRQAPGKERELVASITADGATYYLDSVKGRLTISQDNAKNTVYLQMNSLKPEDTAVYYCAASVKDFTCTFNSWGQGTQVTVSS
For B2, the % inhibition of RBD binding to hACE2 in assay [2] is above 95%. In assay [3], the Kd came to 0.35 nM, the koff came out at 0.000237 s⁻¹ and the kon came to 679000 M⁻¹ s⁻¹.

B3: hcAb 2.15 (Fc fusion)
heavy: QVQLVESGGGSVQAGGSLKLSCAASGYASWARKCIGWFRQAPGQEREGVAAIFDFDGSTYYSDSVKGRFTISGDNAKNTVSLQMNSLLPKDTAVYYCTVAFGTCDNWYRGRGDYWGQGTQVTVSS
Turning to B3, the % inhibition of RBD binding to hACE2 in assay [2] was above 95%. Also, in assay [3], the Kd was 0.08 nM, the koff was 0.00012 s⁻¹ and the kon came out at 1.42e+06 M⁻¹ s⁻¹.

B4: Nb 2.15 (VHH)
VHH: QVQLVESGGGSVQAGGSLKLSCAASGYASWARKCIGWFRQAPGQEREGVAAIFDFDGSTYYSDSVKGRFTISGDNAKNTVSLQMNSLLPKDTAVYYCTVAFGTCDNWYRGRGDYWGQGTQVTVSS
In assay [1], B4 yielded a dissociation constant Kd of 0.39 nM, a koff of 0.000778 s⁻¹ and a kon of 2.02e+06 M⁻¹ s⁻¹.
